{
  "source": "patent US9696316B2",
  "about": "“Conformationally dynamic peptides” (SYSTEM OF SYSTEMS ANALYTICS, INC., priority 2009, dated 2017)",
  "format_in_all_cases": "binding",
  "key": {"Aβ fibers": {"target": "Aβ fibers (Homo sapiens, UniProt P05067)", "sequence (P05067 672-713 limits assumed)": "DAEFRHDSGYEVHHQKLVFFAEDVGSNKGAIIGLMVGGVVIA", "assay": "Aβ fiber assay in 40% TFE", "details": "di-pyrene labeled", "from_the_text": "An Aβ fiber assay may be conducted in an organic solvent, such as 40% TFE. […] This conformation is associated with the monomer or self fluorescence of the pyrene moieties (370-410 nm; see FIG. 6). […] This conformation is associated with the excimer fluorescence of the pyrene moieties (430-530 nm; see FIG. 6)."}, "[1]": {"target": "biotinylated Aβ42 oligomers (Homo sapiens, UniProt P05067)", "sequence (P05067 672-713 limits assumed)": "as above", "assay": "In vitro affinity chromatography-based interaction assay (streptavidin beads)", "details": "4 μM probe", "experimental": "In this assay, soluble peptide probes are combined with, for example, soluble target protein oligomers in an in vitro affinity chromatography-based interaction assay. For this example, target protein is labeled with an affinity molecule, such as biotin, and incubated with a labeled peptide probe. After incubation, the mixture is incubated with the capture moiety, such as streptavidin, on a support, for example a column or beads, such that the target protein is captured. After washing of unbound material, the support can be examined for detection of the labeled peptide probe, which would indicate the presence of bound target protein-peptide probe complexes on the support. Alternatively, the bound material may be eluted and then examined for detection of the labeled peptide probe. Again, detection of the labeled peptide probe would indicate the presence of target protein-peptide probe complexes in the eluant. FIGS. 5A and 15A illustrate an affinity chromatography assay using biotin-labeled target protein and streptavidin-coated beads. This type of assay is useful, for example, for assessing the efficacy of a given peptide probe. […] The beads are washed with PBS to remove unbound material and the captured material is analyzed by SDS-PAGE. […] […]"}, "Aβ42 Fiber": {"target": "Aβ42 Fiber (Homo sapiens, UniProt P05067)", "sequence (P05067 672-713 limits assumed)": "as above", "assay": "In vitro centrifugation-based interaction assay (insoluble complexes)", "details": "40% TFE, 3 hours incubation, 17,000×g 30 minutes", "experimental": "In this assay, soluble peptide probes are combined with insoluble target protein fibers in an in vitro centrifugation-based interaction assay. Peptide probe that binds to the target protein will be detected in an insoluble pellet, which may be isolated using centrifugation. […] Aβ42 Fiber (target protein) and peptide probe (SEQ ID NO:1) are incubated for 3 hours in the presence of increasing amounts of trifluoroethanol (TFE). The samples are centrifuged at 17,000×g for 30 minutes, and the pellets are denatured in sample buffer and analyzed by SDS-PAGE. Reference samples (Input) are shown for comparison."}, "carbonic anhydrase": {"system": "carbonic anhydrase", "assay": "Specificity assay, pyrene fluorescence (control substrate)", "details": "100 nM peptide, water, 15 hours, 0-300 nN substrate", "experimental": "(§1) Peptide 22 (100 nM) is incubated in water for 15 hours at room temperature with equimolar concentrations ([…]) of several potential Aβ substrates: Aβ42 oligomer (type 1); Aβ42 oligomer (type 2); Aβ1-42 monomer; Aβ1-40 monomer; Aβ1-42 fiber; Aβ1-40 fiber; bovine serum albumin (control substrate); and carbonic anhydrase (control substrate)."}, "bovine serum albumin": {"target": "bovine serum albumin (Bos taurus, UniProt P02769)", "sequence (P02769 25-607)": "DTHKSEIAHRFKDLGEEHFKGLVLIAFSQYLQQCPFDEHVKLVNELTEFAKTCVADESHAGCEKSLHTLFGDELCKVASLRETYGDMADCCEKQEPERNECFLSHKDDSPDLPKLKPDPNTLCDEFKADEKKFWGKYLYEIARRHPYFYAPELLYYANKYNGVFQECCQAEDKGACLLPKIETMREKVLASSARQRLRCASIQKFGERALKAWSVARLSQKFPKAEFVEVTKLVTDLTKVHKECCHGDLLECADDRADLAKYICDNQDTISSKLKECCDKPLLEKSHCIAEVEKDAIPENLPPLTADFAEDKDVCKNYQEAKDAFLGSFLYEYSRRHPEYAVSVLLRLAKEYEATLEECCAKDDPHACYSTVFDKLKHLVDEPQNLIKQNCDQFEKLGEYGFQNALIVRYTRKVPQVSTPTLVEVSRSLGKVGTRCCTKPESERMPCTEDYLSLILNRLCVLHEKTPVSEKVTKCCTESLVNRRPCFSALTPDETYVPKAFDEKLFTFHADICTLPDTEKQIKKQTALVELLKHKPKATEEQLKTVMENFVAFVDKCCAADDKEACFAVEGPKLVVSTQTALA", "assay": "Specificity assay, pyrene fluorescence (control substrate)", "details": "100 nM peptide, water, 15 hours, 0-300 nN substrate", "experimental": "as §1"}, "Aβ42 oligomer [2]": {"target": "T1, Aβ42 oligomer (Homo sapiens, UniProt P05067)", "T1 sequence (P05067 672-713 limits assumed)": "as the sequence (P05067 672-713 limits assumed) above", "assay": "Aqueous Aβ oligomer assay, pyrene fluorescence", "from_the_text": "The conformation of peptide probe bound to the target protein can also be detected by measuring pyrene fluorescence, on the peptide alone and in combination with the target protein. […] The excimer fluorescence associated with the β-sheet conformation has a different wavelength than the monomer fluorescence associated with the alpha-helix conformation, and the excimer:monomer fluorescence ratio is 9:1. […] The addition of Aβ42 oligomer target protein results in a dose-dependent shift of the excimer:monomer fluorescence ratio to 20:1 at the highest Aβ42 oligomer concentration (0.3 μM). This change in excimer:monomer fluorescence ratio reflects a corresponding conformational change in the peptide, that results in increased β-sheet conformation, and decreased α helix conformation.\nAn Aβ oligomer assay may be conducted in an aqueous solvent, such as water. […] Upon introduction of Aβ oligomer, the fluorescence profile shifts to primarily self-fluorescence (monomeric) (see FIG. 11), which is associated with reduced β-sheet structure, or increased alpha helix structure.\nAs discussed above, Peptide 22 (SEQ ID NO: 2) undergoes a conformational change upon interaction with Aβ oligomer. FIG. 11 illustrates the fluorescence spectra for Peptide 22 labeled at each terminus with pyrene and incubated in aqueous conditions for several hours at room temperature in 10 mM Hepes (pH 7.0). […] (solid line=Time 0; dashed line=3 hours; dotted line=18 hours).\nas §1\nWith reference to FIG. 13A, Peptide 22 (70 nM) is incubated with […] synthetic Aβ42 oligomer at 25 C, and fluorescence emission spectra is recorded after 3 hours incubation. […] (solid line—no Aβ42 oligomer; dashed/dot line—30 nN Aβ42 oligomer; large dashed line—100 nN Aβ42 oligomer; small dashed line—300 nN Aβ42 oligomer)"}, "Aβ42 oligomer [3]": {"target": "T1, Aβ42 oligomer", "assay": "CD analysis of peptide probe with target protein", "details": "10 mM sodium phosphate pH 7.0, 3 hours", "from_the_text": "The conformation of the peptide probe bound to the target protein can be assessed by CD analysis. […] The peptide alone is highly alpha helical (36%). Upon mixing of Peptide 38 with the target protein, the peptide undergoes a conformation shift that results in increased β-sheet conformation, and decreased α helix conformation. That is, the secondary structure of Peptide 38 is altered such that the proportion of a helix is halved (18%), while the proportion of β-sheet structure is enhanced from 20% to 31%. […] Circular dichroism (CD) analysis is used to determine the secondary structure of Peptide 22, synthetic Aβ42 oligomer, and a mixture thereof. Samples are incubated in 10 mM sodium phosphate (pH 7.0) for 3 hours at room temperature before measuring CD. For each sample, the relative ellipticity is evaluated from 190-260 nm. […] Each data set represents the average of three separate spectral scans."}, "[4]": {"system": "fibrillar amyloid target protein", "assay": "Signal gain on conformational change in the presence of fibrillar amyloid", "experimental": "Peptide Probe 22 (SEQ ID NO:2, 2 μM) labeled at each terminus with pyrene is incubated in 0 to 80% TFE in tris buffer (10 mM Tris, pH 7.0) for 30 min. The reaction is measured by TECAN fluorimeter, and the excimer:monomer fluorescence ratio is recorded. […] When tested for the ability to undergo conformational change in the presence of a fibrillar amyloid target protein, Peptide 22 performs 2.6 times greater than the reference peptide (SEQ ID NO:1)."}, "Aβ1-40 monomer": {"target": "T2, Aβ1-40 monomer (Homo sapiens, UniProt P05067)", "T2 construct": "Aβ1-42 monomer; Aβ1-40 monomer; Aβ1-42 fiber; Aβ1-40 fiber", "T2 sequence (P05067 672-711 limits assumed)": "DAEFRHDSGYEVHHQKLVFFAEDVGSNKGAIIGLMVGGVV", "assay": "Specificity assay, pyrene fluorescence", "details": "100 nM peptide, water, 15 hours, 0-300 nN substrate", "experimental": "as §1"}, "Aβ1-42 fiber": {"target": "T3, Aβ1-42 fiber (Homo sapiens, UniProt P05067)", "T3 construct": "Aβ1-42 monomer; Aβ1-40 monomer; Aβ1-42 fiber; Aβ1-40 fiber", "T3 sequence (P05067 672-713 limits assumed)": "as the sequence (P05067 672-713 limits assumed) above", "assay": "Specificity assay, pyrene fluorescence", "details": "100 nM peptide, water, 15 hours, 0-300 nN substrate", "experimental": "as §1"}, "Aβ1-40 fiber": {"target": "T4, Aβ1-40 fiber (Homo sapiens, UniProt P05067)", "T4 construct": "Aβ1-42 monomer; Aβ1-40 monomer; Aβ1-42 fiber; Aβ1-40 fiber", "T4 sequence (P05067 672-711 limits assumed)": "as the sequence (P05067 672-711 limits assumed) above", "assay": "Specificity assay, pyrene fluorescence", "details": "100 nM peptide, water, 15 hours, 0-300 nN substrate", "experimental": "as §1"}, "Aβ1-42 monomer": {"target": "T5, Aβ1-42 monomer (Homo sapiens, UniProt P05067)", "T5 construct": "Aβ1-42 monomer; Aβ1-40 monomer; Aβ1-42 fiber; Aβ1-40 fiber", "T5 sequence (P05067 672-713 limits assumed)": "as the sequence (P05067 672-713 limits assumed) above", "assay": "Specificity assay, pyrene fluorescence", "details": "100 nM peptide, water, 15 hours, 0-300 nN substrate", "experimental": "as §1"}},
  "note": "“Also recorded” adds a separate entry of the source.",
  "data": [
    {"substance": "KLVFFAEDVGSNKGAIIGLMK (KLVFFAEDVGSNKGAIIGLMK) [SEQ ID NO:1, Aβ protein residues 16-35, with added C-Terminal Lys]", "values": [
      {"measurement": "conformation in the absence of Aβ fibers (CD, data not shown)", "setting": "Aβ fibers", "value": "primarily alpha helical"},
      {"measurement": "conformation upon introduction of an Aβ fiber substrate (pyrene excimer fluorescence)", "setting": "Aβ fibers", "value": "adopts a β-sheet conformation"},
      {"measurement": "capture of labeled peptide probe with biotinylated Aβ42 oligomer on streptavidin beads (SDS-PAGE)", "setting": "[1]", "value": "labeled peptide probe is only detected in the captured material, in the presence of high molecular weight oligomers"},
      {"measurement": "binding of peptide probe to Aβ42 fiber (peptide band in pellet, SDS-PAGE)", "setting": "Aβ42 Fiber", "value": "binding of target protein and peptide probe is clearly observed"}
    ]},
    {"substance": "KLVFFAEDVGSNKHAIIELMK (KLVFFAEDVGSNKHAIIELMK) [Peptide 22, Salt bridge at G29H and G33E]", "values": [
      {"measurement": "fluorescence response to Anhydrase control", "setting": "carbonic anhydrase", "value": "no change in fluorescence"},
      {"measurement": "fluorescence response to BSA control", "setting": "bovine serum albumin", "value": "no change in fluorescence"},
      {"measurement": "pyrene monomer (self) fluorescence (370-420 nm) versus Aβ42 oligomer concentration", "setting": "Aβ42 oligomer [2]; 70 nM peptide, 0, 30, 100, 300 nM synthetic Aβ42 oligomer, 25 C, 3 hours (FIG. 13A)", "value": "increases with Aβ42 oligomer concentration in a dose-dependent manner"},
      {"measurement": "fluorescence over time in the absence of oligomer", "setting": "Aβ42 oligomer [2]; 10 mM Hepes pH 7.0, room temperature, 0, 3, 18 hours (FIG. 11)", "value": "stable over time"},
      {"measurement": "reactivity with Aβ42 oligomers (transition from pyrene excimer fluorescence to pyrene self-fluorescence)", "setting": "Aβ42 oligomer [2]; aqueous assay", "value": "react with Aβ42 oligomers"},
      {"measurement": "preferential binding by state of self-aggregation of Aβ protein", "setting": "Aβ42 oligomer [2]; versus monomers, fibers and control proteins", "value": "preferentially binds to Aβ protein in the form of soluble Aβ oligomers"},
      {"measurement": "β sheet secondary structure (CD)", "setting": "Aβ42 oligomer [3]; 4 μM peptide alone, room temperature", "value": 36, "unit": "%"},
      {"measurement": "β sheet secondary structure (CD)", "setting": "Aβ42 oligomer [3]; 4 μM peptide incubated with 33 nM synthetic Aβ42 oligomer", "value": 43, "unit": "%"},
      {"measurement": "capture of labeled peptide probe with biotinylated Aβ42 oligomer on streptavidin beads (SDS-PAGE)", "setting": "[1]", "value": "directly binds to biotinylated Aβ42 oligomer"},
      {"measurement": "maximal signal gain in the presence of fibrillar amyloid target protein relative to the reference peptide (SEQ ID NO:1)", "setting": "[4]", "value": "about 2.6 times"},
      {"measurement": "fluorescence response to Aβ40 monomer", "setting": "Aβ1-40 monomer", "value": "no change in fluorescence"},
      {"measurement": "fluorescence response to Aβ42 fibers", "setting": "Aβ1-42 fiber", "value": "some dose-dependent increase in monomer fluorescence"},
      {"measurement": "fluorescence response to Aβ40 fibers", "setting": "Aβ1-40 fiber", "value": "no change in fluorescence; also recorded: slight fluorescence response"},
      {"measurement": "fluorescence response to Aβ42 monomer", "setting": "Aβ1-42 monomer", "value": "no change in fluorescence; also recorded: slight fluorescence response"}
    ]}
  ]
}
